Test results from PMC6453957, “Specific inhibition of splicing factor activity by decoy RNA oligonucleotides”.

Biological target: T1, RBFOX1 RRM (UniProt Q9NWB1 109-208)
T1 sequence: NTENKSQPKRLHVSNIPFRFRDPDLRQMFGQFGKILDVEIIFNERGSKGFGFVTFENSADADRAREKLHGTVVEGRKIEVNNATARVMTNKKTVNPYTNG
Assay: NMR 1H-15N HSQC titration; 313 K; very large perturbations; switchSENSE titration: T100 (10 mM Tris-HCl pH 7.4, 100 mM NaCl, 0.05% Tween20), 37 C; sizing: T40 (same with 40 mM NaCl), 37 C; NMR: NMR buffer (RNA in T40), 313 K
Conditions: protein: recombinant; tags: N-terminal 6xHis; single strand

UGCAUGU (ssRNA) [RBFOXi NMR RNA]
binding result: binds
